Measurements: PMC2768988 (2009)

Molecular target: T1, Flrt3 ectodomain (zebrafish, biotin on the enzymatically biotinylatable sequence (bait form))
T1 chain: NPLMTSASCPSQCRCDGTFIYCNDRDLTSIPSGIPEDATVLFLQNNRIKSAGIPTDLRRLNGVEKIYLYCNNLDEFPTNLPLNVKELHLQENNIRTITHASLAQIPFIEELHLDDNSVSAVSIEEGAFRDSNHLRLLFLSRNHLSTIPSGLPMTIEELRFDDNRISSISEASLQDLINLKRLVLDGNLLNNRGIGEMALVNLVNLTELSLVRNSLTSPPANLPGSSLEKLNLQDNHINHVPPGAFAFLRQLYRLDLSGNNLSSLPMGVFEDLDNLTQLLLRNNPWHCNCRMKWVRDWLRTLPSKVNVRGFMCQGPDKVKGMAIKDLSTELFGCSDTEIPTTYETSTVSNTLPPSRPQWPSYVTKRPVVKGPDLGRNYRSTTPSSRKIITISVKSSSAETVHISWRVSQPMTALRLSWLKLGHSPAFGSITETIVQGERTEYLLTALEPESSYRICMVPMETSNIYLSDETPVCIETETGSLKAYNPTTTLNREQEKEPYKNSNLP
Test: SPR

B1: Unc5b-Cd4d3+4-6His (domain or fragment)
chain: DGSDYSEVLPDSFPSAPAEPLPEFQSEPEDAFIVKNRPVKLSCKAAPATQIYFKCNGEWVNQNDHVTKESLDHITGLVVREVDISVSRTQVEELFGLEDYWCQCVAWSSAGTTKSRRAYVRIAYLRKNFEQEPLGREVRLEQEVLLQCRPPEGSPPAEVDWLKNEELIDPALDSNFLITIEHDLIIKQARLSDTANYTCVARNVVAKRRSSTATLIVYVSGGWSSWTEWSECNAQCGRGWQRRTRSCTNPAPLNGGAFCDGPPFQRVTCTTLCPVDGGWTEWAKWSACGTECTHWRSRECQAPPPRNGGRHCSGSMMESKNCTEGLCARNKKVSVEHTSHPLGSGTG
How did the koff turn out when B1 was run?
The koff was 5.5 s⁻¹.
